Test results: paper PMC12582304, “Asymmetric gating of a homopentameric ion channel GLIC revealed by cryo-EM” (Proceedings of the National Academy of Sciences of the …, 2025)

Molecular target: the molecule itself
Test: cryo-EM structure; nanodisc-reconstituted GLIC-WT at pH 4.0; earlier dataset (ref. 44) reprocessed with symmetry expansion, focused classification and particle reorientation; C5 or no symmetry imposed

B1: Gloeobacter violaceus proton-gated ion channel (GLIC), wild type (natural protein)
chain: VSPPPPIADEPLTVNTGIYLIECYSLDDKAETFKVNAFLSLSWKDRRLAFDPVRSGVRVKTYEPEAIWIPEIRFVNVENARDADVVDISVSPDGTVQYLERFSARVLSPLDFRRYPFDSQTLHIYLIVRSVDTRNIVLAVDLEKVGKNDDVFLTGWDIESFTAVVKPANFALEDRLESKLDYQLRISRQYFSYIPNIILPMLFILFISWTAFWSTSYEANVTLVVSTLIAHIAFNILVETNLPKTPYMTYTGAIIFMIYLFYFVAVIEVTVQHYLKVESQPARAASITRASRIAFPVVFLLANIILAFLFFG
notes: GLIC, proton-gated pentameric ligand-gated ion channel of Gloeobacter violaceus; Homopentamer in DOPE/POPC/POPS nanodiscs; As I recall, the construct is the mature channel without its signal peptide, about 317 residues; also called GLIC-WT; WT; source: E. coli C41, purified (amylose resin, SEC), nanodisc-reconstituted
  stoichiometry N: 5
